± gives the half width of the 95% confidence interval.
Assays:
[1] = folding stability dG unfold from chymotrypsin proteolysis; higher = more stable
Outline: (§1)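 How resistant each design was to proteolysis was captured as K50, inferred by Bayesian fitting of sequencing counts. Unfolding free energy was then derived relative to a sequence-predicted unfolded-state K50 and a shared folded-state K50, per protease or combined. Digestion used trypsin and chymotrypsin at 11 threefold-diluted concentrations plus a no-protease condition, on mini-proteins under 80 residues without cysteine in a PA-tagged cDNA display construct. Designs were kept only when AlphaFold2 dimer inter-PAE was above 15.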

[2] = folding stability dG unfold (combined trypsin and chymotrypsin); higher = more stable
Outline: as §1

[3] = folding stability dG unfold from trypsin proteolysis; higher = more stable
Outline: as §1

Sequence | folding stability dG unfold [1] | folding stability dG unfold [2] | folding stability dG unfold [3]
SAGGSAGGSKITVHRNPPGYYVIRIHGPGPITIMIPPKDADELANKLKDLGFDMKVEVYPLDDSAGGSAGGS [r20_124_TrROS] | 1.05 ± 0.1 kcal/mol | 1.1 ± 0.11 kcal/mol | 1.23 ± 0.028 kcal/mol
SAGGSAGGSKKDPEDNPEQAKPPIPPIRVEIYPPDGQPETFEFHSLEEITEWIQERGYTVKIESAGGSAGGS [r12_244_TrROS] | 1.12 ± 0.051 kcal/mol | 0.974 ± 0.065 kcal/mol | 0.668 ± 0.022 kcal/mol
SAGGSAGGSKKIKITVVVPKEEAEKLLKELEKAGYKIVSVEKKEIPENELVVIEIVIEKPEELSAGGSAGGS [r12_445_TrROS_Hall] | 4.13 ± 0.24 kcal/mol | 3.65 ± 0.31 kcal/mol | 3.09 ± 0.14 kcal/mol
SAGGSAGGSKKKIKVIIEVEVNGKKYKIEVEAETEEEAKKKAEEAIKELKKKFPNVKIKKIKPSAGGSAGGS [r12_230_TrROS_Hall] | 4.08 ± 0.25 kcal/mol | 3.51 ± 0.26 kcal/mol | 2.38 ± 0.13 kcal/mol
SAGGSAGGSKKKKKKKKKIKVLIRNKKTGKWFEAEAEVVDGELYIKVNGKIYKIKGPVEIELVSAGGSAGGS [r12_683_TrROS_Hall] | 3.686 ± 0.019 kcal/mol | 3.3 ± 0.048 kcal/mol | 2.38 ± 0.043 kcal/mol
SAGGSAGGSKKKKVIEIKISEEELKKLGLTKEEIAKKLAEKFPNIKKNVRIEKNKDGTLKIYVSAGGSAGGS [r12_50_TrROS_Hall] | 1.27 ± 0.092 kcal/mol | 1.18 ± 0.31 kcal/mol | 1.22 ± 0.072 kcal/mol
SAGGSAGGSKKKLKLVIKLKKGEKAPTAEELKKKLEELGFEIKDIKVVEKDGELYVVLEIELKSAGGSAGGS [r12_1052_TrROS_Hall] | 3.4 ± 0.14 kcal/mol | 3.24 ± 0.32 kcal/mol | 2.67 ± 0.35 kcal/mol
SAGGSAGGSKKKNKPAPPVLVVKVEIVKIELSDEELEAIKKNKEKIKEIYLIKIEVTLVEPEESAGGSAGGS [r12_196_TrROS_Hall] | 2.18 ± 0.062 kcal/mol | 1.94 ± 0.14 kcal/mol | 1.17 ± 0.11 kcal/mol
SAGGSAGGSKKKTVEEILKELKKKKNKIIKIKYKDGSTYYINIKTGKIIKLKNIKNVKIEILPSAGGSAGGS [r20_44_TrROS_Hall] | 4.44 ± 0.1 kcal/mol | 3.55 ± 0.32 kcal/mol | 2.73 ± 0.14 kcal/mol
SAGGSAGGSKKKVTINIVLTVKPGETLTLTVEITIDGKKYKVTKTLTYDPKTNKLVLTATVEPSAGGSAGGS [r12_136_TrROS_Hall] | 5.03 ± 0.24 kcal/mol | 5.03 ± 0.29 kcal/mol | 3.78 ± 0.32 kcal/mol
SAGGSAGGSKKKYTVEELLKKLKPGDIALVKINGKWREVSVEELKKLPPGAEVEVEVFKLKPPSAGGSAGGS [r12_501_TrROS_Hall] | 3.51 ± 0.072 kcal/mol | 3.34 ± 0.16 kcal/mol | 2.84 ± 0.11 kcal/mol
SAGGSAGGSKKPKITITIEILVKNEDGKLYLFRIEIEINENGEISIKMEIFELKDIKPGDILLSAGGSAGGS [r12_38_TrROS_Hall] | 3.94 ± 0.13 kcal/mol | 3.56 ± 0.38 kcal/mol | 2.63 ± 0.19 kcal/mol
SAGGSAGGSKKPPIYKIEIEIDGKKLTIEAKSKEEALKALKEELKKKYPNLKITKIKIEKVKPSAGGSAGGS [r12_429_TrROS_Hall] | 2.4 ± 0.14 kcal/mol | 2.14 ± 0.15 kcal/mol | 1.52 ± 0.088 kcal/mol
SAGGSAGGSKKPVLAKIAILNSGSPEVAEELAKRLAAELGLSPDEVKVELHVIPVTAPGELLFSAGGSAGGS [r12_1066_TrMRF] | 0.328 ± 0.063 kcal/mol | 0.416 ± 0.043 kcal/mol | 0.465 ± 0.02 kcal/mol

— the supplement of paper PMC12764529
